One block for each binder: values may come before it.
Columns and labels:
Human CD73 antigen = target: T1, Human CD73 antigen (human, UniProt P21589 27-547, limits assumed); test: SPR (Biacore 8K), antibody captured on anti-human capture CM5 chip, antigen as analyte, 1:1 model
T1 construct: Antigen used as analyte in SPR; also called NT5E
T1 sequence (looked up): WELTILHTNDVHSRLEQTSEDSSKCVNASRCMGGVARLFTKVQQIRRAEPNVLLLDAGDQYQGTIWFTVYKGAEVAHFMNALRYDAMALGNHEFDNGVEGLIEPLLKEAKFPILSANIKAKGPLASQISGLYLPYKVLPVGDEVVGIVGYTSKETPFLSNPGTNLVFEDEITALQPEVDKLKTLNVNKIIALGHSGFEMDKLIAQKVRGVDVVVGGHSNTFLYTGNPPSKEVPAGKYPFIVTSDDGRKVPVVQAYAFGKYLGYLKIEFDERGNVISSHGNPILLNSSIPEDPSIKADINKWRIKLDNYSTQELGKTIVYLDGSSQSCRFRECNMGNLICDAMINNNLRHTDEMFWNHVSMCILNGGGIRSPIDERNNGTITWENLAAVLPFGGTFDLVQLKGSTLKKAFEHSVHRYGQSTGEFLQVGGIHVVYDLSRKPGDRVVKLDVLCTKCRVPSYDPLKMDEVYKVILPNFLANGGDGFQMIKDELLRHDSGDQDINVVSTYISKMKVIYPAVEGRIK
Protocol: (§1) An Anti-Human Capture-CM5 chip (GE, #BR-1005-30) was prepared using coupling methods of a Human Antibody Capture Kit (GE, #BR-1008-39) and an amino coupling kit (GE, BR-1000-50). The chip was equilibrated at room temperature for 20-30 mins and loaded into a Biacore 8K instrument. The antigen and antibody were diluted to an experimental working concentration using an equilibration buffer. The antigens were diluted with the equilibrium buffer to 50 nM, and then diluted three-fold for seven concentration gradients, and two zero concentrations (i.e., the equilibrium buffer) and one repeat concentration (typically the lowest concentration repeat) were set. Experimental analysis was performed on 10 antigen concentrations (2 zero concentrations, 7 gradient concentrations, and 1 repeated concentration) in a cyclic manner according to an order of antibody, antigen, and regeneration. The antigen injection flow rate was 30 μL/min, the binding time was 120 s, and the dissociation time was 600 s. Following the analysis, the data was analyzed using the corresponding analysis program to confirm that there was no obvious reference binding. Using Kinetics and a 1:1 binding model, the data was fit to obtain the kinetic related parameters Ka, Kd, and KD values of the bispecific antibodies and parental control antibodies.

[1] = target: T2, Human CD73 on CHOK1-huCD73-3F4 cells overexpressing CD73 (human, UniProt P21589 27-549); test: cell-based or functional assay
T2 sequence (looked up): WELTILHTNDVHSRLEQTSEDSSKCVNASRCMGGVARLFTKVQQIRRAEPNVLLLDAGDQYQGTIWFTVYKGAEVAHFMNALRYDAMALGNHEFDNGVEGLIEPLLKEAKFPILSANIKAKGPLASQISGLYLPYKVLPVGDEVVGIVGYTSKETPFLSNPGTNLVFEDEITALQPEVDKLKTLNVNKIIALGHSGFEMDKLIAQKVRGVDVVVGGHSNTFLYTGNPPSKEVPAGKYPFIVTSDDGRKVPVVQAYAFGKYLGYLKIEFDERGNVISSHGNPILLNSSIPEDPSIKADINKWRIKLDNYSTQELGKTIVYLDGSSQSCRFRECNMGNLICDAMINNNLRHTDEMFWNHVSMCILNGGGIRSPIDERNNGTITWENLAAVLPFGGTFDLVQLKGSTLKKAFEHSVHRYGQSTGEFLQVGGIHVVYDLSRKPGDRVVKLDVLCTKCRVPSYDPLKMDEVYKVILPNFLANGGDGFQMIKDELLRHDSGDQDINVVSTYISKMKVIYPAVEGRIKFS

[2] = target: soluble recombinant protein CD73; test: cell-based or functional assay
[3] = target: T3, Human CD39 on CHOK1-huCD39-10B6 cells overexpressing CD39 (human, UniProt P49961 1-510); test: cell-based or functional assay
T3 sequence (looked up): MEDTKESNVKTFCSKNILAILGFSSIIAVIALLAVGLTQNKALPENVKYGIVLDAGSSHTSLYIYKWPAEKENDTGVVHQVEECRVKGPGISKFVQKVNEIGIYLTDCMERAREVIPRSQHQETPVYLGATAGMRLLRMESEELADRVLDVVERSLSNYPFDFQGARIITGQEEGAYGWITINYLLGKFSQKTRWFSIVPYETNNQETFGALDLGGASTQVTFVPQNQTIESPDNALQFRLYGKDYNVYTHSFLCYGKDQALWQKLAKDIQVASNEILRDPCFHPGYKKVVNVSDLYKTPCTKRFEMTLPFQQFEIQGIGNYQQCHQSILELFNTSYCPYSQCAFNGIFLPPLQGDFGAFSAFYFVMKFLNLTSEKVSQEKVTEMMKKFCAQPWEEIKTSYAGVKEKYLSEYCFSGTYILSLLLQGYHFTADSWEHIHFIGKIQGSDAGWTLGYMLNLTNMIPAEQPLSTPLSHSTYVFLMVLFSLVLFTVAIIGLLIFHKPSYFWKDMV

Human CD39 antigen = target: T4, Human CD39 antigen (human, UniProt P49961 38-478); test: SPR (Biacore 8K), antibody captured on anti-human capture CM5 chip, antigen as analyte, 1:1 model
T4 construct: Antigen used as analyte in SPR; also called ENTPD1
T4 sequence (looked up): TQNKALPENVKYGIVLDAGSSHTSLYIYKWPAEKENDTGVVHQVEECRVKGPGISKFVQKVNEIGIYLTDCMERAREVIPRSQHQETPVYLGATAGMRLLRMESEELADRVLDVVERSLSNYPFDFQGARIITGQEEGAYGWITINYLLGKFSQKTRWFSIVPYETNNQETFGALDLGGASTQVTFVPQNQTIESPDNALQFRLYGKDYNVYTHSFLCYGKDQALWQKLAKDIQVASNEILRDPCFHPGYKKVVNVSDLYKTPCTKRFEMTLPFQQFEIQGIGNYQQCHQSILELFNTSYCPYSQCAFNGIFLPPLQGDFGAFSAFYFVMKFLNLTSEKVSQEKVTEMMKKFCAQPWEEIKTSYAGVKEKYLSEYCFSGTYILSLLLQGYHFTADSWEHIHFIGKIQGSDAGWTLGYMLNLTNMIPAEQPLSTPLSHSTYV
Protocol: as §1

Sequence of soluble recombinant protein CD73 (P21589 whole entry): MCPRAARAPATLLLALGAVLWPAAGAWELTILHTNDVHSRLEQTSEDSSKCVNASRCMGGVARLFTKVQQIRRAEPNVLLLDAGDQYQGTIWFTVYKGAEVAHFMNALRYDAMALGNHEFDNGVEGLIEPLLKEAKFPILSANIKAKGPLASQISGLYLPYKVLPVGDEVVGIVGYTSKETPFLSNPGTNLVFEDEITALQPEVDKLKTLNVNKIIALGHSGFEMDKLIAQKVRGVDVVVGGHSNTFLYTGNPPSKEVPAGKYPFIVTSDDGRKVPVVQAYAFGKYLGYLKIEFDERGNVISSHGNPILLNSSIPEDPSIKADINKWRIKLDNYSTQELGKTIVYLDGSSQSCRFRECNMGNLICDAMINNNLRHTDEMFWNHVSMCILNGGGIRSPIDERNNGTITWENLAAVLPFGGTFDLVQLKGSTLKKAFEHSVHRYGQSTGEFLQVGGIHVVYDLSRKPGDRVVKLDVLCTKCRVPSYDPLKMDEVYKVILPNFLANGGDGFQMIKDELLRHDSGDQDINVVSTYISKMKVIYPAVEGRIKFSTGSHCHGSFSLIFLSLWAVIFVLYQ

Kd (Human CD73 antigen): 0.184 nM
koff (Human CD73 antigen): 0.000182 s⁻¹
kon (Human CD73 antigen): 988000 M⁻¹ s⁻¹
EC50 (µg/mL), inhibition of enzyme activity of membrane CD73 on CHOK1-huCD73-3F4 cells (CellTiter Glo) [1]: 0.32 µg/mL
B1: 900725 (CD73 parental monoclonal antibody corresponding to 700035) (antibody, human IgG1, kappa, L234A L235A, V domains shown)
VH: QVQLVQSGAEVKKPGASVKLSCKASGYTFTSYWIHWVRQAPGQGLEWIGMIHPNSGSTYYNEKFKGRATLTVDKSTSTAYMELSSLRSEDTAVYYCARYYGSDYEWYFDVWGQGTTVTVSS
VL: DIQMTQSPSSMSASVGDRVTITCKASQNVRTAVVWYQQKPGKAPKALIYLASNRHTGVPDRFSGSGSGTDFTLTISSLQPEDFATYFCLQHWNYPYTFGQGTKLEIKR

EC50 (µg/mL), inhibition of enzyme activity of soluble CD73 protein (CellTiter Glo) [2]: 1.74 µg/mL
Kd (Human CD73 antigen): 0.382 nM
koff (Human CD73 antigen): 0.000215 s⁻¹
kon (Human CD73 antigen): 561000 M⁻¹ s⁻¹
B2: 900698 (CD73 parental monoclonal antibody corresponding to 700038) (antibody, human IgG1, kappa, L234A L235A, V domains shown)
VH: QVQLVESGGGLVKPGGSLRLSCAASGFTFSKYAMSWIRQAPGKGLEWVAEISSGGGYINYADSVKGRFTISRDNAKNSLYLQMNSLRAEDTAVYYCARAIYYYGSSYNYYAMDYWGQGTTVTVSS
VL: DIQMTQSPSSLSASVGDRVTITCRASQDVGTAEAWYQQKPGKAPKLLIYWASTRHTGVPSRFSGSGSGTDFTLTISSLQPEDFATYYCQQYSSYPLTFGQGTKLEIKR

EC50 (µg/mL), inhibition of CD39 ATPase activity on CHOK1-huCD39-10B6 cells (CellTiter Glo) [3]: 0.558 µg/mL
Kd (Human CD39 antigen): 0.14 nM
koff (Human CD39 antigen): 0.000102 s⁻¹
kon (Human CD39 antigen): 730000 M⁻¹ s⁻¹
B3: 700053 (CD39 nanobody) (VHH)
VHH: QVQLVESGGGLVQPGGSLRLSCAASGSISSIAAMGWYRQAPGKERELVAAITSGGNTNLADSTKGRFTISRDNTKNTVYLQMNSLKPEDTAVYYCNAWGEDDSSWFGTDLCDYWGQGTQVTVSS
notes: In the SPR it was captured on an anti-human antibody capture chip, so the tested construct may carry a human Fc

From patent US20250361314A1 (SHANGHAI HUAOTA BIOPHARMACEUTICAL, published 2025)
